According to patent US20030103975A1:

Key:
[1] = target: soluble αvβ3 integrin heterodimer (Chemicon International) (UniProt P06756); assay: competition ELISA: soluble αvβ3 (5 ng/µl) on wells coated with G^919-1207 (the competitor), with increasing fibronectin
[2] = target: α3β1 integrin on human endothelial cells (TrHBMEC) (human) (UniProt P26006); assay: cell-based or functional assay
α3β1 integrin on human endothelial cells (TrHBMEC) (human), sequence (P26006 33-1051, chain 1 of 2): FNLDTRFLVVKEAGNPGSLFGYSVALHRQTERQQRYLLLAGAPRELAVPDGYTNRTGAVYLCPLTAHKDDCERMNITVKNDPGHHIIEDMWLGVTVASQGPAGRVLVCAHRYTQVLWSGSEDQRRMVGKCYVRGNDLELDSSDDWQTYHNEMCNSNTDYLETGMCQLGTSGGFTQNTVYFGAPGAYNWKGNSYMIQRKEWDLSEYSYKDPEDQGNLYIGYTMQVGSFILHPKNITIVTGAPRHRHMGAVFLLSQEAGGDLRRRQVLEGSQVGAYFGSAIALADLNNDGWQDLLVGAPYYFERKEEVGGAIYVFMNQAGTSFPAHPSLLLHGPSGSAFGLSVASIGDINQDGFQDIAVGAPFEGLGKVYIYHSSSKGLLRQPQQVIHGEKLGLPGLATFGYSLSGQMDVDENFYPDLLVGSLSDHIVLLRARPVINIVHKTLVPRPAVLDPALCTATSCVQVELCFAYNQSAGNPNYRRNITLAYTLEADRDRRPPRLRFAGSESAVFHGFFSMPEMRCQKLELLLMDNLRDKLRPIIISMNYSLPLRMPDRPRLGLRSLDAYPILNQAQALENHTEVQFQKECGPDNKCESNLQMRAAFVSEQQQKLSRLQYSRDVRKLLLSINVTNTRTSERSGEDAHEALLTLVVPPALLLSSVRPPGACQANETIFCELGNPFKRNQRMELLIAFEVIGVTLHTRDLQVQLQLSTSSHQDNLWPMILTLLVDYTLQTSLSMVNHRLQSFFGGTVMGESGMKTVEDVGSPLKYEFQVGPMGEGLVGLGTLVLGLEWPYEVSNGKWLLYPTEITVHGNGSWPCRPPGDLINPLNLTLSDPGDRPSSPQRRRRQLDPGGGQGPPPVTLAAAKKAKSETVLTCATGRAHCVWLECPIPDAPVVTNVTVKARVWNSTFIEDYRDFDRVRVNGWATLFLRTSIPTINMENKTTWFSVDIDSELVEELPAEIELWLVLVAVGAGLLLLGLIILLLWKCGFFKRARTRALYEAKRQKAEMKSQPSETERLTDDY
α3β1 integrin on human endothelial cells (TrHBMEC) (human), sequence (P05556 21-798, chain 2 of 2, further chain): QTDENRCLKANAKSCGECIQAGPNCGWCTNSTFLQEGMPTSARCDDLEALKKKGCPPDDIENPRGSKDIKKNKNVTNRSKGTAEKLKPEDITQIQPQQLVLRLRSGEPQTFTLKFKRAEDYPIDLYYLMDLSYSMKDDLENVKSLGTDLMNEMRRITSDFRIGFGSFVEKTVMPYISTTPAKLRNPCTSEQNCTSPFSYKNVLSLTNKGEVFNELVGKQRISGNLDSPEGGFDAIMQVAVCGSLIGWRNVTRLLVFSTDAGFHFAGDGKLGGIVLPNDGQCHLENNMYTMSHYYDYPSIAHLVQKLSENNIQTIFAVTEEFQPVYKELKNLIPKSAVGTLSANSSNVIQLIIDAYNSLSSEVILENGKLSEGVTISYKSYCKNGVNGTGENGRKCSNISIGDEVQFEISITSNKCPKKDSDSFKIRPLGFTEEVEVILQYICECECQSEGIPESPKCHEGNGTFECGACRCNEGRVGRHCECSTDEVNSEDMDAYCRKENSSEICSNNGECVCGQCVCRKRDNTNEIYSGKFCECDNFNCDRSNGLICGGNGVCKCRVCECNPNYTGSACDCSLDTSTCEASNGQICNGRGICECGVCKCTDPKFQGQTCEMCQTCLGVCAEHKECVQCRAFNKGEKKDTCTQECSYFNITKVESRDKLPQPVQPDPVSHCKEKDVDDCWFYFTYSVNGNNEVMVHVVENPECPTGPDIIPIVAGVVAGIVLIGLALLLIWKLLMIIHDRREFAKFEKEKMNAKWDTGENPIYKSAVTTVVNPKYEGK

human fibronectin (BD Biosciences), P02751 32-2296 (ligand), sequence (P02751 other isoform, or with tags, fused parts or gaps limits assumed): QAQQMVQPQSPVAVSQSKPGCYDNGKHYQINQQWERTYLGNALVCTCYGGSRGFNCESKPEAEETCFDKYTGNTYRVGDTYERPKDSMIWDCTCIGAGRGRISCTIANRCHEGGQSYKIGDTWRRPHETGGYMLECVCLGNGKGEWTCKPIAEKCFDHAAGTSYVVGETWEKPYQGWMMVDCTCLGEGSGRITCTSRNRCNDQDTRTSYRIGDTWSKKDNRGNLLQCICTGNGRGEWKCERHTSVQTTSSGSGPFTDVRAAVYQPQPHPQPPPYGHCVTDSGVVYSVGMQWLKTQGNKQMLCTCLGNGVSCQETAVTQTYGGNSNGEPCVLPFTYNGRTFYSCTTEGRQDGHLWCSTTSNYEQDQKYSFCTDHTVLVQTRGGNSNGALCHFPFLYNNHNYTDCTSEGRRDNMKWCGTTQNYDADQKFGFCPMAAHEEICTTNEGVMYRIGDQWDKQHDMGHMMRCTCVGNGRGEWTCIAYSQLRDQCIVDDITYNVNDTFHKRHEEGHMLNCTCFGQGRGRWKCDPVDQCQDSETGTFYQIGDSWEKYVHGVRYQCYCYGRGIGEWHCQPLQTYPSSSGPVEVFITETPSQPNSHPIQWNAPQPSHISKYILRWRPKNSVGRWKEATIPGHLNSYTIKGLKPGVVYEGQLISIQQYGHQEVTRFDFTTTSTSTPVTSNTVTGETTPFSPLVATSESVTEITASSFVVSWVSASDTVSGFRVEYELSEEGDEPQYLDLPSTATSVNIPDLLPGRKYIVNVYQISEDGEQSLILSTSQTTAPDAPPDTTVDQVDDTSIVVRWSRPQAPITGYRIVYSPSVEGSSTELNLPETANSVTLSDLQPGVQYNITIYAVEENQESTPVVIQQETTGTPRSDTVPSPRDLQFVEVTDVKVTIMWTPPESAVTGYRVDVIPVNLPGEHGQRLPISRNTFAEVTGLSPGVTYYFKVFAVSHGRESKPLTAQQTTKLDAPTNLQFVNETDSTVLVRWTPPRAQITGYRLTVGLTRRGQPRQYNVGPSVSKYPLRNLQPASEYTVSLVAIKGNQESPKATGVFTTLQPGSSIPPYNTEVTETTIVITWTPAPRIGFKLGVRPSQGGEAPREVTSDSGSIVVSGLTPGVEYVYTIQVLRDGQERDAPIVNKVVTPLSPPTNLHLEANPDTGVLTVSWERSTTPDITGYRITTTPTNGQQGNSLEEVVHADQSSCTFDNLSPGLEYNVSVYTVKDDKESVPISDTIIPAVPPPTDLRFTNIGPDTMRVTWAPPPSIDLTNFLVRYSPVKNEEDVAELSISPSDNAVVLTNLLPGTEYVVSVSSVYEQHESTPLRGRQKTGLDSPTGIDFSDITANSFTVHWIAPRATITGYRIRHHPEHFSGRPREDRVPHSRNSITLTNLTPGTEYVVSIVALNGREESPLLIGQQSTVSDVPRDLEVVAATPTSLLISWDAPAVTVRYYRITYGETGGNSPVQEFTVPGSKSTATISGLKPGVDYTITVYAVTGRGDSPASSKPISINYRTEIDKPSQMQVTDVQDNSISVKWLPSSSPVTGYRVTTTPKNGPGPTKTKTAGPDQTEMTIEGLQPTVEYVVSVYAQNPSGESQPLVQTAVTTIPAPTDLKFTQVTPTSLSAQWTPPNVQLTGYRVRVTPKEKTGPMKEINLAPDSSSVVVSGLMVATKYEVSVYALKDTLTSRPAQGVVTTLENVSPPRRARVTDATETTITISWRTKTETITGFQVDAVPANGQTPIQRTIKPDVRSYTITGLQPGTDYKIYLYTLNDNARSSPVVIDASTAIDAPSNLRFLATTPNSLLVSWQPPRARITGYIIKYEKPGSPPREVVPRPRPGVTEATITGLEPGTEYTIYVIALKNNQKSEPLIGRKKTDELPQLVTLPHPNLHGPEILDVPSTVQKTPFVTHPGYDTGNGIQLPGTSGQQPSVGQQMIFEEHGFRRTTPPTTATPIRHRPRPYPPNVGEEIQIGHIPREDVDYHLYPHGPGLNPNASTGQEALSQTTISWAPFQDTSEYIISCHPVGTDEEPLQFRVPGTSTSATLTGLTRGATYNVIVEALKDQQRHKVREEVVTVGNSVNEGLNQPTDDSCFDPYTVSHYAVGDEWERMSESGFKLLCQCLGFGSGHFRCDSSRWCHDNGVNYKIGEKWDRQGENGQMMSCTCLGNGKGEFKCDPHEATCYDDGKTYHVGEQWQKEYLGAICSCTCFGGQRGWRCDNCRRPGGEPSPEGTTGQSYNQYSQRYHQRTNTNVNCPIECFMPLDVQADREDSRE

Row | IC50 [1] [µM] | inhibition of endothelial cell adhesion to laminin 5 by a combination of antibodies against the α3 and α6 integrin subunits [2] [%] | inhibition of endothelial cell adhesion to laminin 5 by antibody 6S6 against β1 integrin [2] [%] | inhibition of endothelial cell adhesion to laminin 5 by antibody LM609 against αvβ3 integrin [2] [%] | Substance
1 | 0.084 | – | – | – | human fibronectin (BD Biosciences), P02751 32-2296 (ligand)
2 | – | 40 | > 80 | 60 | laminin 5 derived from conditioned medium of cultured epithelial cells (ligand)
